Experimental data: patent US20080108569A1, “Compositions and Methods for Treating Diseases Associated With Phlpp” (The Regents of the University of California, priority 2005, published 2008)

Tests used:
LN229 cells [1] = test: tumorigenicity of subcutaneously injected glioblastoma cells transfected with PHLPP; format: in vivo, nude mice of BALB/c background; settings: subcutaneous injection
Procedure: (§1) LN229 cells were transfected with vector, HA-PHLPP or HA-ΔC. Approximately 30 hours post-transfection, the cells were switched to selection media (DMEM, 10% FBS, 1% penicillin/streptomycin and 800 μg/ml G418). The viable cells were counted after 7 days in selection media. The number of viable cells reflects the effect of PHLPP on cell proliferation. The G418 resistant stable cells were propagated and expanded for an additional 2-3 passages to obtain the number of cells needed for mice injection. For subcutaneous inoculation, 3×10^6 or 5×10^6 cells were injected into 4- to 5-week old female nude mice of BALB/c background. The size of tumors was measured once a week with a caliper, and tumor volumes were defined as (longest diameter)×(shortest diameter)^2×0.5. Tumors were excised from individual mice and flash frozen in liquid N2. The tumor samples were homogenized in buffer A, and detergent-solubilized lysates were subjected to SDS-PAGE and Western blotting analysis.

LN229 cells [2] = test: growth rate of glioblastoma cells transfected with PHLPP (viable cells in G418 media); format: cell-based, human; settings: glioblastoma cell line wild-type in PTEN
Procedure: as §1

Akt = target: T1, Akt (Homo sapiens, UniProt P31749); test: phosphatase assay with purified GST-tagged PHLPP2 PP2C domain and pure phosphorylated Akt; format: biochemical; settings: in 5 minutes, pure
T1 construct: 6His; made in house; host or cells: Akt1: baculovirus-infected Sf21 cells; HA-PHLPP2: transfected 293T cells, immunoprecipitated with HA antibody
Procedure: A GST-fusion protein of PHLPP-1α-PP2C was expressed in BL21 (DE3) and purified using glutathione-Sepharose. The GST-PP2C proteins were eluted from the beads in PBS containing 10 mM glutathione and 1 mM DTT, and dialyzed against 50 mM Tris (pH 7.4) and 1 mM DTT. His-tagged Akt was expressed and purified from baculovirus-infected Sf21 cells. Briefly, Sf21 cells were maintained in SF-900 II media (Invitrogen) and infected with baculovirus encoding His-Akt for 3 days. To obtain maximally phosphorylated Akt as substrate, the infected cells were treated with 10% FBS and calyculin A (100 nM) for 15 minutes prior to lysis. The infected cells were lysed in PBS containing 1% Triton X-100 and 10 mM imidazole, and His-Akt proteins were purified using Ni-NTA beads (Qiagen). The dephosphorylation reactions were carried out in a reaction buffer containing 50 mM Tris (pH 7.4), 1 mM DTT and 5 mM MnCl2 at 30° C. for 0-30 minutes. […]
GST-PP2C was expressed in BL21 bacterial cells; phosphatase assays were performed using the purified GST-PP2C construct conjugated to glutathione-sepharose and pure Akt as a substrate as described above. The activity of full length HA-PHLPP2 was assessed by expressing and immunoprecipitating PHLPP2 from 293T or H157 cell lysates. […]

T1 sequence (P31749 whole entry, the tested form may be a part): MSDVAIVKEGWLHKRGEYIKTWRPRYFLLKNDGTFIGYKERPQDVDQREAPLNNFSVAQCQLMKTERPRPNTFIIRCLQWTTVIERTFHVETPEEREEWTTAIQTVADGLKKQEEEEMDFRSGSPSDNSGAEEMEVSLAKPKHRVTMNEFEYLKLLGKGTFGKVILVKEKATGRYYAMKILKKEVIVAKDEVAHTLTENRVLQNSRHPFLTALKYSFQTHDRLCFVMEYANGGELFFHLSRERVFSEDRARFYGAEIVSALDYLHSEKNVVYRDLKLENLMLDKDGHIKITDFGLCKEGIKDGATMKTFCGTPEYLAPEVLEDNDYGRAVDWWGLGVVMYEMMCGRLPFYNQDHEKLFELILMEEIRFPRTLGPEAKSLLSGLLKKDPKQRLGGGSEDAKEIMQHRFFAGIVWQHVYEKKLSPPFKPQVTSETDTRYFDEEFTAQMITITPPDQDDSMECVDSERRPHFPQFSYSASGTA

| Molecule | ability of the cells to induce tumors (LN229 cells [1]) | decrease of the growth rate (LN229 cells [2]) | dephosphorylation of Ser 473 (P473) (Akt) | dephosphorylation of Thr 308 (P308) (Akt) |
| --- | --- | --- | --- | --- |
| PHLPP: PH domain Leucine rich repeat Protein Phosphatase; HA-PHLPP-1α construct transfected into LN229 glioblastoma cells (SEQ ID NO: 2) (protein, listed as Homo sapiens, HA tag) MDSEIGCLIRFYAGKPHSTGSSERIQLSGMYNVRKGKMQLPVNRWTRRQVILCGTCLIVSSVKDSLTGKMHVLPLIGGKVEEVKKHQHCLAFSSSGPQSQTYYICFDTFTEYLRWLRQVSKVASQRISSVDLSCCSLEHLPANLFYSQDLTHLNLKQNFLRQNPSLPAARGLNELQRFTKLKSLNLSNNHLGDFPLAVCSIPTLAELNVSCNALRSVPAAVGVMHNLQTFLLDGNFLQSLPAELENMKQLSYLGLSFNEFTDIPEVLEKLTAVDKLCMSGNCVETLRLQALRKMPHIKHVDLRLNVIRKLIADEVDFLQHVTQLDLRDNKLGDLDAMIFNNIEVLHCERNQLVTLDICGYFLKALYASSNELVQLDVYPVPNYLSYMDVSRNRLENVPEWVCESRKLEVLDIGHNQICELPARLFCNSSLRKLLAGHNQLARLPERLERTSVEVLDVQHNQLLELPPNLLMKADSLRFLNASANKLESLPPATLSEETNSILQELYLTNNSLTDKCVPLLTGHPHLKILHMAYNRLQSFPASKMAKLEELEEIDLSGNKLKAIPTTIMNCRRMHTVIAHSNCIEVFPEVMQLPEIKCVDLSCNELSEVTLPENLPPKLQELDLTGNPRLVLDHKTLELLNNIRCFKIDQPSTGDASGAPAVWSHGYTEASGVKNKLCVAALSVNNFCDNREALYGVFDGDRNVEVPYLLQCTMSDILAEELQKTKNEEEYMVNTFIVMQRKLGTAGQKLGGAAVLCHIKHDPVDPGGSFTLTSANVGKCQTVLCRNGKPLPLSRSYIMSCEEELKRIKQHKAIITEDGKVNGVTESTRILGYTFLHPSVVPRPHVQSVLLTPQDEFFILGSKGLWDSLSVEEAVEAVRNVPDALAAAKKLCTLAQSYGCHDSISAVVVQLSVTEDSFCCCELSAGGAVPPPSPGIFPPSVNMVIKDRPSDGLGVPSSSSGMASEISSELSTSEMSSEVGSTASDEPPPGALSENSPAYPSEQRCMLHPICLSNSFQRQLSSATFSSAFSDNGLDSDDEEPIEGVFTNGSRVEVEVDIHCSRAKEKEKQQHLLQVPAEASDEGIVISANEDEPGLPRKADFSAVGTIGRRRANGSVAPQERSHNVIEVATDAPLRKPGGYFAAPAQPDPDDQFIIPPELEEEVKEIMKHHQEQQQQQQPPPPPQLQPQLPRHTQLDQLPDYYDTPL | dramatically reduces | approximately 50% | – | – |
| PHLPP2 PP2C domain: GST-tagged PP2C domain of PHLPP2 (residues 780-1030) expressed in bacteria (protein, left off: a dimerising Fc or GST, GST-tagged PP2C domain of PHLPP2 (residues 780-1030) expressed in bacteria) TSTFWSHGLAEMAGQRNKLCVSALAMDSFAEGVGAVYGMFDGDRNEELPRLLQCTMADVLLEEVQQSTNDTVFMANTFLVSHRKLGMAGQKLGSSALLCYIRPDTADPASSFSLTVANVGTCQAVLCRGGKPVPLSKVFSLEQDPEEAQRVKDQKAIITEDNKVNGVTCCTRMLGCTYLYPWILPKPHISSTPLTIQDELLILGNKALWEHLSYTEAVNAVRHVQDPLAAAKKLCTLAQSYGCQDNVGAMV | – | – | 82+6% | 70+2% |
